Assay results taken from patent publication US20240261333A1, “NOVEL TARGETS FOR ENHANCING ANTI-TUMOR IMMUNITY” (THE BROAD INSTITUTE, INC., priority 2021, published 2024).

Target: T1, B3GNT2 (Homo sapiens, UniProt Q9NY97)
T1 construct: The respective ORFs of candidate genes [CD274 (NM_014143), MCL1 (NM_021960), JUNB (NM_002229), and B3GNT2 (NM_006577)] were synthesized; expressed in transfected cells; host or cells: A375 melanoma cells (lentiviral ORF overexpression)
T1 sequence (Q9NY97 1-397): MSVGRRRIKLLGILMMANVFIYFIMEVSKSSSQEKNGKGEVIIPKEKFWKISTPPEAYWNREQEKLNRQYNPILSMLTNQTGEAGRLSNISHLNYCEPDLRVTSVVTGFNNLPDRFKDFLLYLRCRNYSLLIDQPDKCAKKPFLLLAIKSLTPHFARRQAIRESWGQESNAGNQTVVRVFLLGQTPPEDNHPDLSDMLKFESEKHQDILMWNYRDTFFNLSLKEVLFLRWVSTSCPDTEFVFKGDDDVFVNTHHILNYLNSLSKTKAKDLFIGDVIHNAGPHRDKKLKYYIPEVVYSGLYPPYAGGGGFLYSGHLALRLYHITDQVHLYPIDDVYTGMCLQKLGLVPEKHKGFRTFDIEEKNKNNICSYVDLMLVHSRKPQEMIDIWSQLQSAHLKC
Experiment: Co-IP of FLAG-tagged B3GNT2 followed by mass spectrometry
Type: cell-based
Set-up: C-term IgG / C-term flag: unit not given here
Conditions: mass spectrometry count, unit not given
Procedure, shortened: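 Co-purifying proteins were identified by fractionated nano-LC–MS/MS on an Orbitrap Elite, run data-dependent. Beforehand, lysates in 1% Triton X-100/HEPES buffer were incubated overnight at 4° C with anti-FLAG or […] and pulled down on Protein A/G magnetic beads for 4 h. Duplicate biological replicates.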

B1: RRBP1 (protein)
chain: MDIYDTQTLGVVVFGGFMVVSAIGIFLVSTFSMKETSYEEALANQRKEMAKTHHQKVEKKKKEKTVEKKGKTKKKEEKPNGKIPDHDPAPNVTVLLREPVRAPAVAVAPTPVQPPIIVAPVATVPAMPQEKLASSPKDKKKKEKKVAKVEPAVSSVVNSIQVLTSKAAILETAPKEVPMVVVPPVGAKGNTPATGTTQGKKAEGTQNQSKKAEGAPNQGRKAEGTPNQGKKTEGTPNQGKKAEGTPNQGKKAEGTPNQGKKAEGAQNQGKKVDTTPNQGKKVEGAPTQGRKAEGAQNQAKKVEGAQNQGKKAEGAQNQGKKGEGAQNQGKKAEGAQNQGKKAEGAQNQGKKAEGAQNQGKKAEGAQNQGKKAEGAQNQGKKAEGAQNQGKKVEGAQNQGKKAEGAQNQGKKAEGAQNQGKKAEGAQNQGKKAEGAQNQGKKAEGAQNQGKKAEGAQNQGKKAEGAQNQGKKVEGAQNQGKKAEGAQNQGKKAEGAQNQGKKAEGAQNQGQKGEGAQNQGKKTEGAQGKKAERSPNQGKKGEGAPIQGKKADSVANQGTKVEGITNQGKKAEGSPSEGKKAEGSPNQGKKADAAANQGKKTESASVQGRNTDVAQSPEAPKQEAPAKKKSGSKKKGEPGPPDADGPLYLPYKTLVSTVGSMVFNEGEAQRLIEILSEKAGIIQDTWHKATQKGDPVAILKRQLEEKEKLLATEQEDAAVAKSKLRELNKEMAAEKAKAAAGEAKVKKQLVAREQEITAVQARMQASYREHVKEVQQLQGKIRTLQEQLENGPNTQLARLQQENSILRDALNQATSQVESKQNAELAKLRQELSKVSKELVEKSEAVRQDEQQRKALEAKAAAFEKQVLQLQASHRESEEALQKRLDEVSRELCHTQSSHASLRADAEKAQEQQQQMAELHSKLQSSEAEVRSKCEELSGLHGQLQEARAENSQLTERIRSIEALLEAGQARDAQDVQASQAEADQQQTRLKELESQVSGLEKEAIELREAVEQQKVKNNDLREKNWKAMEALATAEQACKEKLLSLTQAKEESEKQLCLIEAQTMEALLALLPELSVLAQQNYTEWLQDLKEKGPTLLKHPPAPAEPSSDLASKLREAEETQSTLQAECDQYRSILAETEGMLRDLQKSVEEEEQVWRAKVGAAEEELQKSRVTVKHLEEIVEKLKGELESSDQVREHTSHLEAELEKHMAAASAECQNYAKEVAGLRQLLLESQSQLDAAKSEAQKQSDELALVRQQLSEMKSHVEDGDIAGAPASSPEAPPAEQDPVQLKTQLEWTEAILEDEQTQRQKLTAEFEEAQTSACRLQEELEKLRTAGPLESSETEEASQLKERLEKEKKLTSDLGRAATRLQELLKTTQEQLAREKDTVKKLQEQLEKAEDGSSSKEGTSV
- C-term flag (Co-IP with FLAG antibody, C-terminally FLAG-tagged B3GNT2): 16
- N-term FLAG (Co-IP with FLAG antibody, N-terminally FLAG-tagged B3GNT2): 2
- C-term IgG (Co-IP with IgG control antibody, C-terminally FLAG-tagged B3GNT2): 2
- N-term IgG (Co-IP with IgG control antibody, N-terminally FLAG-tagged B3GNT2): 0
